Data as given in patent publication US20230213527A1, “COMPOSITIONS AND METHODS FOR POLYPEPTIDE ANALYSIS” (Quantum-Si Incorporated, priority 2021, published 2023).

B1: PS961: Planctomycetes ClpS variant recognizer for N-terminal leucine, isoleucine, and valine (protein)
chain: MPTAASATESAIEDTPAPARPEVDGRTKPKRQPRYHVVLWDDDDHTYQYVVVMLRSLFGHPPSRGYRMAKEMDTQGRVIVLTTTREHAELKRDQIHAFGRDRLLARSKGSMKASIEAEE
B2: PS691: arginine recognizer generated from the UBR-box domain of K. lactis UBR1 protein (protein)
chain: MHSKFSHAGRICGAKFKVGEPIYRCKECSFDDTCVLCVNCFNPKDHTGHHVYTTICTEFNNGICDCGDKEAWNHTLFCKAEEGGSAGSAAGSGEFMHSKFSHAGRICGAKFKVGEPIYRCKECSFDDTCVLCVNCFNPKDHTGHHVYTTICTEFNNGICDCGDKEAWNHTLFCKAEEGGGSHHHHHHHHHHGGGSGGGSGGGSGLNDFFEAQKIEWHEGGGSGGGSGGGSGLNDFFEAQKIEWHE

How the values were obtained:
[1] = target: N-terminal leucine, isoleucine, and valine; experiment: Binding affinity of PS961 (bulk characterization, polarization), N-terminal leucine, isoleucine, valine
From the text: To expand the set of recognizable NAAs, N-end rule pathway proteins were investigated as a source of additional recognizers. In a comprehensive screen of diverse ClpS family proteins, a group of ClpS proteins from the bacterial phylum Planctomycetes with native binding to N-terminal leucine, isoleucine, and valine was discovered. […] The median PD of binding to peptides with N-terminal LAA, IAA, and VAA was 1.21, 0.28, and 0.21 s, respectively, in agreement with bulk characterization (FIG. 7C).
(§1) Binding affinity was measured by polarization using a labeled peptide. The polarization response and total intensity measurements were carried out at 20° C. on a microplate fluorometer with 480 nm excitation and 530 nm emission. The interaction of recognizer with labeled peptide containing a target N-terminal residue (XAKLDEESILKQK-FITC (SEQ ID NO: 833)) was performed in PBS buffer at pH 7.4 and readings were collected after 30 min. Multiple analyses were performed at increasing recognizer concentration at a fixed concentration of a target peptide to obtain a titration curve. An equilibrium polarization response at each concentration was plotted and fit to calculate the KD.

[2] = system: N-terminal lysine and histidine; experiment: Polarization binding assay of PS691, peptides with N-terminal arginine, lysine, histidine; settings: compared with N-terminal arginine
Experimental: In a separate screen, a diverse set of UBR-box domains from the UBR family of ubiquitin ligases that natively bind N-terminal arginine, lysine, and histidine were investigated. […] PS691 recognized arginine in a peptide with N-terminal RLA with a median PD of 0.23 s (FIG. 2C).
as §1

Molecule | Affinity [1] | Binding to N-terminal lysine and histidine [2]
B1 | sub-micromolar | –
B2 | – | Lower affinity
